Target: OsPR5-His (rice (Oryza sativa)) (UniProt P31110)
Experiment: BLI

OsPR5-His (rice (Oryza sativa)), sequence (P31110 27-177): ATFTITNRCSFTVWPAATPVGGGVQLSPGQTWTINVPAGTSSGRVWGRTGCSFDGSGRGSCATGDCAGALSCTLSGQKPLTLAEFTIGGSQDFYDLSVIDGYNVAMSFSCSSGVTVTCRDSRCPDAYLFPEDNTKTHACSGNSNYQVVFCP

Row | Substance | Kd [µM]
1 | GBP-His (natural protein) | 0.000745
2 | ThBP15k (recombinant, no tag named) (natural protein) | 0.0259
